Measured values published in article PMC10720262 (Cell Reports, 2023).
Where a chain is given by its changes, count along the chain named.

Target: recombinant full-length PfCSP (Plasmodium falciparum circumsporozoite protein, strain NF54) (Plasmodium falciparum NF54, UniProt P19597)
Sequence (P19597 20-375): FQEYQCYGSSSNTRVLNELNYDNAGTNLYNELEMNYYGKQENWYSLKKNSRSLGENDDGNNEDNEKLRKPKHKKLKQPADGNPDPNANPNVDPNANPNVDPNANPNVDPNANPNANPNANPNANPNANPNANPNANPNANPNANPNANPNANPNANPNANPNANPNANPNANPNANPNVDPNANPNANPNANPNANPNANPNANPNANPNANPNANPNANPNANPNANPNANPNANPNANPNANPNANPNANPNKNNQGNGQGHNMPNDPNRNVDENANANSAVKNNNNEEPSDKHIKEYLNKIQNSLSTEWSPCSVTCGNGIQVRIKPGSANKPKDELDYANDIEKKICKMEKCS

B1: CL-512011 (antibody, V domains shown)
VH: QVQLVESGGGVVQPGRSLRLSCVTSGFTFSSFGMHWVRQAPGKGLEWVALIWYDGSHKFYADSLTGRFTISRDNSKNTLYLQMNSLRVEDTAVYYCARAHAVTTANDKYGTDVWGQGTTVNVSP
VL: DIQMTQSPSTLSASVGDRVTITCRASQSISSWLAWYQHKPGNAPKLLIYKASNLESGVPSRFSGSGSGTEFTLTISSLQPDDFATYFCQQYNSYWTFGQGTKVEVK
binding result: binds

B2: CL-512023 (antibody, V domains shown)
VH: QVQLMESGGGVVQPGRSLRLSCEASGFTFSNSGMHWVRQAPGKGLEWVAIIWYDGSNRYYVDSVKGRFTISRDNSKNTLYLQMNSLRAEDTAVYYCARDGGNRYGYGWFDSWGQGTLVTVSS
VL: QSVLTQPPSVSGAPGQRVTISCTGSSSNIGAGYDVHWYQQLPGTAPKLLIYGNTNRPSGVPDRFSGSKSGTSASLAITGLQAEDEADYYCQSYDSSLGGSRRVFGGGTKLTVL
binding result: binds

B3: CL-512191 (antibody, V domains shown)
VH: QVQLVESGGGVVQPGRSLRLSCAASGFTFSNYAMHWVRQAPGKGLEWVAVIWYDGSNKYYADSVKGRFTISRDDSKNTLYLQMNSLRAEDTAVYYCARDKGYRYGFNWFDPWGQGTLVTVSS
VL: QSVLTQPPSVSGAPGQRVTISCTGSSSNIGAGYDVHWYQKLPGTAPKLLIFSNSNRPSGVPDRFSGSKSGTSASLAITGLQAEDEADYYCQSYDSSLSGSRVFGGGTKLTVL
binding result: binds

B4: CL-512206 (antibody, V domains shown)
VH: QVQLVESGGGVVQPGRSLRLSCAASGFTFSHYGMHWVRQAPGKGLEWVAVIWYDGNNKFYADSVKGRFTISRDNSNNTLYLQMNSLRAEDTAVYHCVRERTGATSRGFDFWGQGTLVTVSS
VL: QSVLTQPPSVSAAPGQKVTISCSGSDSNIEKYYVSWYQQLPGSAPKLLIYDNNKRPSGIPDRFSGSKSGTSATLGITGLQTGDEAVYYCGTWDSSLSTGVFGGGTKLTVL
binding result: binds

B5: CL-512264 (antibody, V domains shown)
VH: B1 VH with S31N, L50I, H57N, T65K, Y80F, V88A, A101T, N121T, P124S
VL: B1 VL with N42K, N53S, V105I
binding result: binds

B6: CL-512275 (antibody, V domains shown)
VH: B1 VH with R16G, L18F, V23E, S31N, A101S, N121T
VL: B1 VL with N42R, N53S, V58I, V105I
binding result: binds

B7: CL-512296 (antibody, V domains shown)
VH: QVQLVESGGGVVQPGRSLRLSCAASGFTFSNYGMHWVRQAPGKGLEWVAVIWYDGSKKFYADSVMGRFTISRDNSKNTLVLQMNSLGAEDTAVYYCARDRGYSGYVFDYWGQGTLVTVSS
VL: QSALTQPASVSGSPGQSIAISCTGTSSDVGGYNFVSWYRHHPGKAPKLMIYDVSNRPSGVSNRFSGSKSGNTASLTISGLQAEDEADYYCCSYAGSCSVFGGGTKLTVL
binding result: binds

B8: CL-512319 (antibody, V domains shown)
VH: QVQLVESGGGVVQPGRSLRLSCAASGFTFSNFGMHWVRQAPGKGLEWVAVIWYDGSHKFYADSLKGRFTISRDNSKNTLYLQMNNLRAEDTAVYYCARAHPVTTDYDKYGMDVWGQGTTVTVSS
VL: DIQMTQSPSTLSSSVGDRVTITCRASQSISIWLAWIQQKPGKAPKLLIYKASSLESGVPSRFSGSGSGTEFTLTISSLQPDDFATYYCQQFYSYWTFGLGTKVEIK
binding result: binds

B9: CL-512374 (antibody, V domains shown)
VH: QVQLVESGGGVVQPGRSLRLSCAASGFTFSSYGMHWVRQAPGKGLEWVAVIWYDGSNKYYADSVKGRFTISRDNSKNTLYLQMNSLRAEDTAVYYCARDGGGTTRSFDLWGRGTLVTVSS
VL: QSVLTQPPSVSGAPGQRVTISCTGSSSNIGAGYDVHWYQQLPGTAPKLLIYGNSNRPSGVPDRFSGSKSGTSASLAITGLQAEDEADYYCQSYDSSLSGSMFGGGTKLTVL
binding result: binds

B10: CL-512459 (antibody, V domains shown)
VH: QVQLVESGGGVVQPGRSLRLSCTASGFTFSDYGMHWVRQAPGKGLEWVSIIWYDGSKKYYADSVQGRFTISRDNSKNTLYLQMSSLRAEDTAVYYCARAYGSGSYYTFNYWGQGTLVTVSS
VL: EIVMTQSPATLSVSPGERATLSCRASQSVNSNLAWYQQKPGQAPRLLIYGASTRATGFPARFIGSGSGTDFTLTINSLQSEDFAVYYCQQYNHWWTFGQGTKVEIK
binding result: binds

B11: CL-512469 (antibody, V domains shown)
VH: QMQLVESGGGVVQPGRSLTLSCEASGFTFSNYGMHWVRQAPGKGLEWVAIIWFDGSHRFYADAVEGRFTISRDNSKNTLFLQMTSLRAEDAAVYYCARVGQFSSSSWGAFDIWGQGTVVTVSS
VL: EIVLTQSPGTLSLSPGESVTLSCRASQIISNTHLAWYQQKPGQAPSLLIYGASSRATGIPDRFSGSGSGTDFTLTISRLEPEDFAVYYCQQYGRLWTFGQGTKVEIK
binding result: binds

B12: CL-512508 (antibody, V domains shown)
VH: QVQLVESGGGVVQPGTSLRLSCGASGFTFSSYGMHWVRQAPGKGLEWVAIIWYDGNNKYYADSVKGRFTISRDNSKNTLYLQMNSLRAEDTAVYYCAKVGQFSTSSWGAFDIWGQGTMVTVSS
VL: EIVLTQSPGTLPLSPGERATLSCRASQSVSSSQLAWYQQKPGQAPRLLIYGASSRATAIPDRFSGSGSGTDFTLTISRLEPEDFAVYYCQQYSRLWTFGQGTKVEIK
binding result: binds

B13: CL-512564 (antibody, V domains shown)
VH: QVQLVESGGGVVQPGRSLRLSCAASGFTFSNSGMHWVRQAPGKGLEWVAIIWYDGSHKFYADSVKGRFTISRDNSKNTLYLQMNSLRIEDTAMYYCVRSYNWNYPVRGDYKYGMDVWGQGTTVTVSS
VL: B8 VL with S13A, I31S, I36F, K45N, K50M, E55Q, Y92N, S93T, L99Q
binding result: binds

B14: CL-512761 (antibody, V domains shown)
VH: QVQLVESGGGVVQPGTSLRLSCAASGFTFSNYGMHWVRQAPGKGLEWVSITWYDESNKFYADSVKGRFTISRDNSKNTLYLQMNSLRAEDTAVYYCARAYDTLTGYRAQKYGMDVWGQGTTVTVSS
VL: B1 VL with S28R, S31T, H38Q, N42K, Y49N, K50E, N53R, F87Y, V105I
binding result: binds

B15: CL-512870 (antibody, V domains shown)
VH: QVQLVESGGGVVQPGRSLRLSCEASGFTFSHYGMHWVRQAPGRGLEWVAIIWYDGSNTYYRDSVKGRFTISRDNSKDTLFLQMNSLRPDDTAVYYCARALYYDSGSLFDFWGQGTLVTVSS
VL: B1 VL with H38Q, N42K, N53S, S56T, S67F, T74S, F87Y, Q89L, S93I, V105I
binding result: binds

B16: CL-512871 (antibody, V domains shown)
VH: QVLLVESGGGVVQPGRSLRLSCAASGFTFSNYGMHWVRQAPGKGLEWVALIRYDGINKFYADSVKGRFTISRDNSENTLYMQINSLRAEDTAMYYCAKAYNTSSDYYYGMDVWGQGTTVTVSS
VL: B8 VL with S13A, I31T, I36Y, S53R, F83L, Y92N, L99Q, K106R
binding result: binds

B17: CL-513041 (antibody, V domains shown)
VH: QEHLVESGGGVVQPGRSLRLSCAASGFTFSNSGMHWVRQAPGKGLEWVAVIWYDGSNKFYADSVRGRFTISRDNSNNTLYLQMNSLRAEDTALYYCARDRLFSGSWNWFDPWGQGTLVTVSS
VL: EIVLTQSPATLSLSPGERATLSCRASQSVSTYLAWYQQKPGQAPRLLIYDASNRATGIPARFSGSGSGTDFTLTISSLEPEDFAVYYCQQRSNWFTFGGGTKVEIK
binding result: binds

B18: CL-513069 (antibody, V domains shown)
VH: QVQLVESGGGVVQPGKSLRLSCEASGFTFSNYGMHWVRQAPGKGLDWVAIIWHDGGNKFYADSVRGRFTISRDNSKNTLFLQMNSLRAEDSAVYYCARVFDFRDSCYTMDVWGQGTTVTVSS
VL: B1 VL with H38Q, N42K, N53S, T72S, F87Y, N92T, S93R, K102R, V105I, K106Q
binding result: binds

B19: CL-513083 (antibody, V domains shown)
VH: QVQLVESGGGVVQPGRSLRLSCAASGFTFSNYGMHWVRQAPGRGLEWVAIIWYDGSNKYYEDSVKGRFTISRDNSKNTLYLQMNSLRAEDTAVYYCARAQWLDQRHYHYTMDVWGQGTTVTVSS
VL: not shown
binding result: binds

B20: CL-513094 (antibody, V domains shown)
VH: QVQLVESGGGVVQPGRSLRLSCAASGFTFSGSGMHWVRQAPGRGLEWVAIIWYDGSHKYYVDSVQGRFIISRDNSKNTLYLEMNNLRVEDTAVYYCVRAYPSGSSNDKYGMDVWGQGTTVTVSS
VL: not shown
binding result: binds

B21: CL-513274 (antibody, V domains shown)
VH: QVQLVESGGGVVQPGRSLRVSCAASGFTFSNYGMYWVRQAPGKGLEWVALIWHDGSNKFYEDSVKGRFTISRDNSKNTLYLQMNSLRAEDTAVYYCARAGYFQGSGSFLDYWGQGTLVTVSS
VL: B1 VL with S31T, H38Q, N42K, N53S, N92S, V105I
binding result: binds

B22: CL-513279 (antibody, V domains shown)
VH: QVQLVESGGGVVQPGRSLRLSCAASGFTFSNFGMHWVRQAPVKGLEWVALIWYDGSNKFYADSVQGRFTISRDNSKNILYLQMNSLRAEDTAVYYCAKVEARGVDYHSYGMDVWGQGTTVTVSS
VL: B1 VL with H38Q, N42K, K45Q, N53S, F87Y, N92K, S93Y, V105I
binding result: binds

B23: CL-513462 (antibody, V domains shown)
VH: B21 VH with L50V, S56T
VL: B1 VL with H38Q, N42K, N53S, N92S, V105I
binding result: binds

B24: CL-513617 (antibody, V domains shown)
VH: QVQLVESGGGVVQPGRSLRLSCAASGFIFSNYGMYWVRQTPDKGLEWVALIWYDGGNKFYSDSVKGRFTVSRDNSKNTLYLQMNSLRDEDTALYYCARAGYFYGSGSSLDKWGQGTLVTVSS
VL: B8 VL with S13A, T20S, I36Y, T72S, F91Y, Y92N, S93R, L99Q
binding result: binds
